Reference: US20110217305A1 (SYMPHOGEN A S, published 2011)

Target: T1, Fc-conjugated HER2 (HER2-Fc), R&D Systems cat. No 1129-ER (human, UniProt P04626 23-652)
T1 construct: Bought reagent; Captured on an anti-Fc surface in the SPR binning; also called rhHER2; HER2 protein (R&D Systems cat.#1129-ER); not shown: Fc part of the bought fusion protein
Test: SPR epitope binning (ProteOn XPR36), HER2-Fc captured via anti-Fc; competitor 4387; class limits for the pair

- % inhibition: 25 to 50%
B1: antibody 4382 (antibody, human IgG1, kappa, V domains shown)
VH: EVQLQQSGPELVKPGASVKISCTASGYTFTDYYMNWVKQSHGKSLEWIGDINPNNGGTNYNQKWKGKATLTIHKSSSTAYMELRSLTSEDSAVYFCVPGGLRSYFDYWGQGTTLTVSS
VL: DIVMTQSLKFMSASVGDRVSITCKASQDVSAAVAWYQQKPGQSPELLIYWASTRHTGVPDRFTGSGSGTDYTLTISSVQAEDLALYYCQQHYTTPPTFGGGTKLEIKR
notes: Chimeric murine/human IgG1 kappa
